According to patent publication EP2112167A2 (Genentech, Inc., dated 2009):

Experiments:
ErbB3 = biological target: T1, ErbB3 (human, UniProt P21860 20-1342); assay: not described
T1 construct: whole, on cells; In the co-immunoprecipitation it is the endogenous receptor of the cells (lysates); also called HER3

ErbB4 = biological target: T2, ErbB4 (UniProt Q15303 26-649, limits assumed); assay: not described
T2 construct: also called HER4
T2 sequence (looked up): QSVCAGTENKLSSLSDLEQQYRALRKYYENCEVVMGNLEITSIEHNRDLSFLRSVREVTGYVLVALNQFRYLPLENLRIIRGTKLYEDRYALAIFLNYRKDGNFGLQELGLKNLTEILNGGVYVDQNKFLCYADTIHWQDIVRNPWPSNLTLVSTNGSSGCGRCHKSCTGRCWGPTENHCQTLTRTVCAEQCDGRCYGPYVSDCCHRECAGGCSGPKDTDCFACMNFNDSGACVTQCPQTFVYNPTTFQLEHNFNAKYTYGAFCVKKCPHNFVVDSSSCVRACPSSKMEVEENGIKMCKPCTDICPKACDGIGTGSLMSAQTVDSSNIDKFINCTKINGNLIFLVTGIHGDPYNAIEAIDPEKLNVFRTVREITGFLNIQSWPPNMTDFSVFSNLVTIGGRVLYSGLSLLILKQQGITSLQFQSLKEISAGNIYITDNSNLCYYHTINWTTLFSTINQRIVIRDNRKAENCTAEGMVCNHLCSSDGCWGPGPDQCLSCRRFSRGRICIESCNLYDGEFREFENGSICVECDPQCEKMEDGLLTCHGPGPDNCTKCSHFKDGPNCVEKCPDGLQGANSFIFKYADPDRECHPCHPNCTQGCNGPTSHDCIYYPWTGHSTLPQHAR

EGFR = biological target: T3, EGFR (UniProt P00533 25-645, limits assumed); assay: not described (cited: Fendly et al.)
T3 construct: also called ErbB1; epidermal growth factor receptor

Measured: binding result

T1 sequence (P21860 20-1342): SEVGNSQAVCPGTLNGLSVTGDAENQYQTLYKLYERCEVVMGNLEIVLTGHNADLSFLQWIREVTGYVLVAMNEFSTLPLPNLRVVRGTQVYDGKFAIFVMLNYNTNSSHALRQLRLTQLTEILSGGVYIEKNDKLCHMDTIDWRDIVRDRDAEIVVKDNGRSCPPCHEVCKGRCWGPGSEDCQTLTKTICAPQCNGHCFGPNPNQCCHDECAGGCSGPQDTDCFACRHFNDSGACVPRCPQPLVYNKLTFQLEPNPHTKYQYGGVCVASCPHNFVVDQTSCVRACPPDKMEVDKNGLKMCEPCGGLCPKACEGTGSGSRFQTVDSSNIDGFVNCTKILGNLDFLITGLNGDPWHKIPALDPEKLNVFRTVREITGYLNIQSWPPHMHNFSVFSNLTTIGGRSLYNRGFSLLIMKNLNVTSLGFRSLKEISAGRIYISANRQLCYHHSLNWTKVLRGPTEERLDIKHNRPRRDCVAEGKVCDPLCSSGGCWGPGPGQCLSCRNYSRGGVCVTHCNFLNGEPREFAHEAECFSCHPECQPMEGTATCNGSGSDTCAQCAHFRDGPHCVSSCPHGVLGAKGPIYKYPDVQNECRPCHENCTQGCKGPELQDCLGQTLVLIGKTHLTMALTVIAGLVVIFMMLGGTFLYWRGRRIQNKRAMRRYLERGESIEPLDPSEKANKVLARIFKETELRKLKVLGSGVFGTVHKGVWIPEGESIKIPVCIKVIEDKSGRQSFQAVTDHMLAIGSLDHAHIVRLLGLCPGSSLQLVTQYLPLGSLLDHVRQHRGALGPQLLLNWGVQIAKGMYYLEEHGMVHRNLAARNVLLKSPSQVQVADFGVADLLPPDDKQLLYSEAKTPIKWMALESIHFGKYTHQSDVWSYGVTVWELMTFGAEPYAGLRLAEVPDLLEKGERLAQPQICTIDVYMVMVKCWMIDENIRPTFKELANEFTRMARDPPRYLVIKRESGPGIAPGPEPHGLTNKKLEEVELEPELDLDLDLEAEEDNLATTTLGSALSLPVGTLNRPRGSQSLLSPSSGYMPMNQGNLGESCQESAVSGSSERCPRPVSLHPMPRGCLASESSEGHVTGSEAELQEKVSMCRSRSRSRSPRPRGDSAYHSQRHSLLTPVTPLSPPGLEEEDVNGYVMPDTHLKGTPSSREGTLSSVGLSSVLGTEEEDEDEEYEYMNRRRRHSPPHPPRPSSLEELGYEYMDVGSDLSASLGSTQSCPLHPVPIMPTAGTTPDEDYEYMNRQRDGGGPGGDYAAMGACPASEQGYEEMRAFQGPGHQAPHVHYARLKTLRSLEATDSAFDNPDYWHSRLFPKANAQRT

B1: murine monoclonal antibody 2C4 (antibody, V domains shown)
VH: EVQLQQSGPELVKPGTSVKISCKASGFTFTDYTMDWVKQSHGKSLEWIGDVNPNSGGSIYNQRFKGKASLTVDRSSRIVYMELRSLTFEDTAVYYCARNLGPSFYFDYWGQGTTLTVSS
VL: DTVMTQSHKIMSTSVGDRVSITCKASQDVSIGVAWYQQRPGQSPKLLIYSASYRYTGVPDRFTGSGSGTDFTFTISSVQAEDLAVYYCQQYYIYPYTFGGGTKLEIK
notes: Intact murine monoclonal antibody from hybridoma; also called mu 2C4; ATCC HB-12697
no binding: all assays above
